The results in this text go back to patent US20260125454A1 (SHANGHAI JUNSHI BIOSCIENCES, published 2026).

The target in assay [1] is T1, Biotin-huCGRPaSA (human, not fully specified; biotin (position not given)).
T1 construct: exact construct ('aSA') not explained; also called Biotin CGRPaSA; full-length (1-37) CGRP
T1 peptide: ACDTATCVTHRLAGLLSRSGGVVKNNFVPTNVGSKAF
In words: ELISA, transfection supernatant, biotin-CGRP on streptavidin. For orientation: ELISA stands for enzyme-linked immunosorbent assay.

Assay [2] concerns the target T1, Biotin-huCGRPaSA. Description: ELISA, purified antibody; relative to reference 47-RM-20190815.
Assay [3] concerns the target CGRP antigen. In words: cell-based or functional assay.
The target of assay [4] is CGRP antigen. In words: cell-based or functional assay. The source holds these as a separate data set.
Assay [5] addresses T2, synthetic human α-CGRP polypeptide (SEQ ID NO: 97)-NH2 (human, C-terminal phenylalanine amide (F-NH2); one intrachain disulfide bond between the two CYS residues (printed as positions 7 and 12)).
T2 construct: Analyte in solution (50 nM) in the pH-dependence BLI assay
T2 peptide: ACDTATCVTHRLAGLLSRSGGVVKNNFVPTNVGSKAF
Description: BLI (Octet), antibody on AHC2, 50 nM CGRP; association pH 7.4, dissociation pH 7.4. The method, then:
(§1) The association/dissociation profiles for three antibodies Hu224, galcanezumab analogue and fremanezumab analogue binding to the antigen human α-CGRP in solutions at different pH (7.4 and 5.5) were determined on an Octet RBD96e system. The pH 7.4 buffer contained 10 mM HEPES (pH 7.4), 150 mM sodium chloride, 3 mM EDTA, and 0.05% P20. The pH 5.5 buffer contained 10 mM NaAc (pH 5.5), 150 mM sodium chloride, and 0.05% P20. The three antibodies Hu224, galcanezumab analogue, and fremanezumab analogue were immobilized on the surfaces of AHC2 bioprobes (Sartorius, Cat. No. 18-5142) at 10 μg/mL, respectively. 50 nM human α-CGRPs diluted in different pH (7.4 and 5.5) buffers were used to bind to the antibodies during the 0 to 200 s antigen association phase, and different pH (7.4 and 5.5) buffers were used to wash during the 0 to 200 s antigen dissociation phase. The conditions were pH 7.4 association and pH 7.4 dissociation, pH 7.4 association and pH 5.5 dissociation, and pH 5.5 association and pH 5.5 dissociation. The binding signals of the antigen at the time of injection for 200 s were calculated using analytical software and fitted to give the dissociation constant kd. The amino acid sequence of the synthetic human α-CGRP polypeptide fragment is […] […]

The target in assay [6] is CGRP antigen. In words: cell-based or functional assay. The source holds these as a separate data set.
For assay [7], the target named is T1, Biotin-huCGRPaSA. In words: ELISA, supernatant; relative to chimeric C245. The method in brief: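 Plates coated with biotin-CGRPaSA at 1.0 μg/mL (90 min, 37°C) and blocked with 2% BSA. Humanized antibodies and chimeric C245 reference, 2.5-fold serial dilutions from 1000 ng/mL, bound 60 min at 37°C. Detection by HRP anti-human IgG (Fc), TMB 15 min, read at 450/620 nm.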

The target of assay [8] is T2, synthetic human α-CGRP polypeptide (SEQ …). Description: BLI (Octet), antibody on AHC2, 50 nM CGRP; association pH 5.5, dissociation pH 5.5. As for the experimental part:
as §1
(Biolayer interferometry detects binding as a change in optical thickness at a sensor tip.)

Assay [9] has the same target. Description: BLI (Octet), antibody on AHC2, 50 nM CGRP; association pH 7.4, dissociation pH 5.5. The method, then:
as §1

The target of assay [10] is CGRP antigen. In words: cell-based or functional assay. The source holds these as a separate data set.
The target in a further assay is T3, human β-CGRP (human, UniProt P10092 82-118, not fully specified).
T3 construct: mature; also called human full-length (1-37) β-CGRP polypeptide (Anaspec)
T3 peptide (looked up): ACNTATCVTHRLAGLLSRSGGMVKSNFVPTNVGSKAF
In words: ELISA, hybridoma supernatant.

The target in the next assay is T4, hCGRP(13-24) (human).
T4 construct: also called polypeptide 13-24
T4 peptide: Biotin-GGGGGAGLLSRSGGVVK
In words: BLI (Octet), biotin-peptide on SA probe. The method, then: (§2) The kinetic parameters of C245 Fab (Fab monomer fragments derived from antibody C245) binding to six synthetic human CGRP alpha polypeptide fragments (polypeptide 1-13, polypeptide 1-19, polypeptide 1-37, polypeptide 8-19, polypeptide 8-26, and polypeptide 13-24) were determined on an Octet RBD 96e system. Human CGRP synthetic polypeptide fragments were immobilized on the surfaces of SA bioprobes (Sartorius, Cat. No. 18-5019) at the following concentrations: 46.5 nM for hCGRP (1-13), 8.5 nM for CGRP (1-19), 15.5 nM for hCGRP (1-37), 8.5 nM for hCGRP (8-19), 15.5 nM for hCGRP (8-26), and 46.5 nM for hCGRP (13-24). The immobilized synthetic human CGRP polypeptide fragments were bound to 45 nM of C245 Fab and the binding dissociation curves were fitted using analytical software.

The target in assay [11] is T5, hCGRP(1-13) (human, disulfide 7-12).
T5 construct: also called polypeptide 1-13
T5 peptide: Biotin-GGGGGACDTATCVTHRLA
Description: BLI (Octet); hCGRP (1-13) against the fragments holding 8-19. As for the experimental part: as §2

The next assay has as its target T6, hCGRP(1-37) (human, N-terminal biotin; C-terminal phenylalanine amide (F-NH2); CYS residues at positions 7 and 12 theoretically form 1 intrachain disulfide bond).
T6 construct: also called polypeptide 1-37; full-length hCGRP (1-37) polypeptide
T6 peptide: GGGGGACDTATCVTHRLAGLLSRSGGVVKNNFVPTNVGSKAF
In words: BLI (Octet), biotin-peptide on SA probe, 45 nM Fab. The method, then: as §2
(§3) The kinetic parameters of hu224 Fab (Fab monomer fragments derived from humanized antibody hu224) binding to four synthetic human CGRP alpha polypeptide fragments (polypeptide 1-13, polypeptide 1-19, polypeptide 1-37, and polypeptide 8-19) were determined on an Octet RBD 96e system. Human CGRP synthetic polypeptide fragments were immobilized on the surfaces of SA bioprobes (Sartorius, Cat. No. 18-5019) at the following concentrations: 8.5 nM for CGRP (1-19), 15.5 nM for hCGRP (1-37), 10 nM for hCGRP (8-19), and 15.5 nM for hCGRP (8-26). The immobilized synthetic human CGRP polypeptide fragments were bound to 45 nM of hu224 Fab and the binding dissociation curves were fitted using analytical software.

The next assay has as its target T7, hCGRP(8-19) (human).
T7 construct: also called polypeptide 8-19
T7 peptide: Biotin-GGGGGVTHRLAGLLSRS
Description: BLI (Octet), biotin-peptide on SA probe, 45 nM Fab. The method, then: as §2, §3

The next assay has as its target T8, hCGRP(1-19) (human, N-terminal biotin; CYS residues at positions 7 and 12 theoretically form 1 intrachain disulfide bond).
T8 construct: also called polypeptide 1-19
T8 peptide: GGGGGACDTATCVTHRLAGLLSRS
Description: BLI (Octet), biotin-peptide on SA probe, 45 nM Fab. The method, then: as §2, §3

The target in another assay is T9, hCGRP(8-26) (human, N-terminal biotin).
T9 construct: also called polypeptide 8-26
T9 peptide: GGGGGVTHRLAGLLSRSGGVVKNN
In words: BLI (Octet), biotin-peptide on SA probe, 45 nM Fab. As for the experimental part: as §2, §3

The target in assay [12] is T5, hCGRP(1-13). In words: BLI (Octet), biotin-peptide on SA probe, 45 nM Fab. The method, then:
as §2, §3

Like-named read-outs stand apart in the source and are kept apart here. Bridges are numbered along the chain shown (N, C = ends). Where no end group is shown, it is not given here. The star is where a group is joined. Biotin = O=C1N[C@H]2[C@H](CS[C@H]2CCCCC(=O)*)N1

As usually defined, the koff is a measure of how fast the partners let go of each other. Low readings indicate slow dissociation, high ones fast dissociation. The IC50 is the concentration that inhibits the measured activity by half. Lower therefore signals inhibition by little substance. The Kd is the equilibrium constant for the complex coming apart. Read a high Kd as a looser complex. As a reminder, the kon is the rate constant with which the complex forms. Lower therefore signals slower complex formation.

B1: C79 (antibody, V domains shown)
VH: EVQLQQSGPELVKPGASVKISCKTSGYTFIDFNMHWVKQSHGKSLEWIGYIYPYNGDVVYNQNFTNKATLTVDSSSSTAYMELRRVTSEDSAIYYCAREGLGGYWGQGTTLTVSS
VL: DVVLTQSPTSLAVSLGQRATISCQASQNIDGNTYMNWYQQKPGQPPKVLIYSIFNLESGIPARFSGSGSGTHFTLTIHPVEEEDAATYYCQQSNDYPYTFGGGTKLEIK
notes: 1F5-HC + 2B8-LC2; chimeric, human constant regions
On to B1, for which, in the assay with Biotin-huCGRPaSA [1], the OD value was determined as 3.03 OD. In addition, the “Relative activity (%)” value with Biotin-huCGRPaSA [2] came to 59.8%. For the same molecule, the “Relative binding activity (%) vs Ref(Teva)” value in the assay with CGRP antigen [3] and with CGRP antigen [4] was 71.1% in each case.

B2: hu224 (antibody, human IgG4 S228P, kappa, V domains shown)
VH: QVQLVQSGAEVKKPGASVKVSCKASGYSFTGYTMNWVRQAPGQRLEWMGLINPYIGNTHYNQKFKDRVTFTVDRSSSTAYMELSSLRSEDTAVYYCARELDSGFDYWGQGTLVTVSS
VL: DVVMTQSPDSLAVSLGERATINCRSSQNIVHSNGDTYLEWYQQKPGQPPKLLIYKVSNRFSGVPDRFSGSGSGTDFTLTISSLQAEDVAVYYCYQGSHVPWTFGQGTKLEIKR
Regarding B2, the off-rate (koff) worked out at 0.000265 s⁻¹ in assay [5], 0.0141 s⁻¹ in assay [8] and 0.0143 s⁻¹ in [9]. Moreover, it took 0.0224 µg/mL to reach half-maximal inhibition with CGRP antigen [6] (IC50). Also, the “relative activity (%) vs C245” value in the assay with CGRP antigen [6] came out at 80%. Further, in the assay with Biotin-huCGRPaSA [7], the “Relative binding activity, %” value worked out at 82%.

B3: C269 (antibody, V domains shown)
VH: EVQLQQSGPELVKPGASVKISCKTSGYTFTDYNMHWVKQSHGKSLEWIGYISPYNGGTAYNQKFKFKSTLTVDTSSSTAYMELRSLTSEDSAVYYCAREGLGGYWGQGTTLTVSS
VL: DIVLTQSPASLAVSLGQRATISCKASQNIDYDGYTYLNWYQQKPGQPPKVLIYSIFNLESGIPARFSGSGSGTDFTLNIHPVEEEDAATYYCQQSNEVPYTFGGGTKLEIK
notes: 3E5-HC + 3E5-LC; chimeric, human constant regions
The molecule B3 came in with an OD value with Biotin-huCGRPaSA [1] of 2.91 OD. In the assay with Biotin-huCGRPaSA [2], the “Relative activity (%)” value amounted to 101%. Besides, the “EC50 (so labelled in the table under the curves; half-maximal inhibition of the CGRP-induced luciferase signal in SK-N-MC CRE 2E9 reporter cells, CGRP antigen at 4 ng/mL)” value in the assay with CGRP antigen [10] came out at 0.143 µg/mL.

B4: 3E5 (antibody, V domains shown)
VH: EVQLQQSGPELVKPGASVKISCKTSGYTFTDYNMHWVKQSHGKSLEWIGYISPYNGGTAYNQKFKFKSTLTVDTSSSTAYMELRSLTSEDSAVYYCAREGLGGYWGQGTTLTVSS
VL: DIVLTQSPASLAVSLGQRATISCKASQNIDYDGYTYLNWYQQKPGQPPKVLIYSIFNLESGIPARFSGSGSGTDFTLNIHPVEEEDAATYYCQQSNEVPYTFGGGTKLEIK
notes: murine hybridoma supernatant; also called hybridoma antibody 3E5
Turning to B4, the binding result in the assay with human β-CGRP is on record as “binds”.

B5: 3C1 (antibody, V domains shown)
VH: EVQLQQSGPELVKPGASMKISCKASGYSFTGYTMNWVKQSHGNNLEWIGLINPYIGNTHYNQKFKDKATFTVDRSSSTAYMALLSLTSEDSAVYYCARELDSGFDYWGQGTTLTVSS
VL: DVLMTQTPLSLPVSLGDQASLSCRSSQNIVHSNGDTYLEWYLQKPGQSPKLLIYKVSNRFSGVPDRFSGSGSGTDFTLKISRVEAEDLGVYYCYQGSHVPWTFGGGTKLEIK
notes: murine hybridoma supernatant; also called hybridoma antibody 3C1
For the molecule B5, in the assay with human β-CGRP, the binding result is “binds”.

B6: C245 Fab (Fab, V domains shown)
VH: EVQLQQSGPELVKPGASMKISCKASGYSFTGYTMNWVKQSHGNNLEWIGLINPYIGNTHYNQKFKDKATFTVDRSSSTAYMALLSLTSEDSAVYYCARELDSGFDYWGQGTTLTVSS
VL: DVLMTQTPLSLPVSLGDQASLSCRSSQNIVHSNGDTYLEWYLQKPGQSPKLLIYKVSNRFSGVPDRFSGSGSGTDFTLKISRVEAEDLGVYYCYQGSHVPWTFGGGTKLEIK
notes: Fab of chimeric C245; also called Fab monomer fragments derived from antibody C245
As for B6, the binding result with hCGRP(13-24) is on record as “no binding (tested: 45 nM)”. The “fold decrease in affinity” value with hCGRP(1-13) [11] turned out to be 100 fold. Moreover, the Kd with hCGRP(1-37) came to 0.249 nM; with hCGRP(8-19), 0.252 nM; in the assay with hCGRP(1-19), 0.0721 nM; with hCGRP(8-26), 0.952 nM; with hCGRP(1-13) [12], 24.4 nM. For the same molecule, the koff with hCGRP(1-37) is 6.95e-05 s⁻¹; in the assay with hCGRP(8-19) it was 9.32e-05 s⁻¹; with hCGRP(1-19), 2.58e-05 s⁻¹; in the assay with hCGRP(8-26), 0.000316 s⁻¹; with hCGRP(1-13) [12] it was 0.0172 s⁻¹. The kon was 280000 M⁻¹ s⁻¹ with hCGRP(1-37); 360000 M⁻¹ s⁻¹ with hCGRP(8-19); 357000 M⁻¹ s⁻¹ in the assay with hCGRP(1-19); 332000 M⁻¹ s⁻¹ with hCGRP(8-26); 704000 M⁻¹ s⁻¹ with hCGRP(1-13) [12].
